In the supplement of paper PMC12764529:
± gives the half width of the 95% confidence interval.

Tests used:
[1] = folding stability dG unfold from chymotrypsin proteolysis; higher = more stable
Procedure: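 Folding stability of de novo designed mini-proteins (<80 aa, no Cys; designed by TrROS, TrMRF, ProteinMPNN and the joint model) was measured by cDNA display proteolysis with trypsin and chymotrypsin. Each protease was used at 11 concentrations in a threefold dilution series plus a no-protease condition. K50 was inferred by Bayesian fitting of sequencing counts, and dG unfold was derived against a sequence-predicted unfolded-state K50 (Tsuboyama et al. method). Sequences shown include variable-length N-terminal GS-type padding (SAGGSAGG...) inside a display construct carrying a PA tag. Rows were kept only if the AF2 dimer inter-PAE was >15, to exclude likely homo-oligomers.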

[2] = folding stability dG unfold (combined trypsin and chymotrypsin); higher = more stable
Summary of the method: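 Only designs with AlphaFold2 dimer inter-PAE above 15 were retained; each was a mini-protein under 80 residues with no cysteine, in a PA-tagged cDNA display construct. After digestion with trypsin and chymotrypsin and sequencing, K50 was inferred by Bayesian fitting of counts, and unfolding free energy was derived per protease or combined against a sequence-predicted unfolded-state K50 and a shared folded-state K50.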

Sequence | folding stability dG unfold [1] [kcal/mol] | folding stability dG unfold [2] [kcal/mol]
SAGGMPLSTESFVQESSGDGTPFTTTKTTYRDVNGNPLVTPVSTVDPVAGTTTTTVTVDGTPVTTTTPSAGG [r13_948_JUSTAS] | -0.386 ± 0.2 | -0.701 ± 0.17
SAGGMPVPKEKVKSVLYLPHPESDEPEVLVLAELGGKPVLFVIPSELSLEEAIKAVEEGVEAGPIDLGSAGG [r13_225_TrMRF] | 0.402 ± 0.14 | -0.355 ± 0.27
SAGGMRLEHLRNMIKNMPPGMKDVNINQHPGHGNYTFSVENPNKPVSIPFDSPEDQQEIQELAREYVKSAGG [r13_287_TrROS] | 0.19 ± 0.19 | -0.417 ± 0.29
SAGGMTITLPKNMTKEELEALAKKLEEETGLKVTIEYNEETNEVTITVEGLSEEEQERIKKLLEEAASAGGS [r16_227_TrROS_Hall] | 3.49 ± 0.34 | > 6
SAGGMTVTIESVERLPGGVEVRRMVIETLDPNNPTPSTVERELVTEFTPSVDPEGRPGRLARREEVLGSAGG [r13_612_JUSTAS] | 0.0887 ± 0.12 | -0.237 ± 0.15
SAGGMVLEKKSPSGTTTKTVVEETPDELYVKTTTLKGKTPTTSESVIPAPPPPPLPFPSGRPEELQLLSAGG [r13_691_JUSTAS] | -0.632 ± 0.45 | < -1
SAGGNITPNQAKRQAQEIADWLAQEYQQQNPDMKVKVDVEVDPPDGEIKVDGEWPNGRPMAEITIPVKSAGG [r13_247_TrROS] | -0.0106 ± 0.13 | -0.618 ± 0.24
SAGGNRIPIPVKEIANNLNEEGWEIDEVEIYNPDDGEPKGTIPPGDPIEIPPNAPNMTIKPKIKPRKSAGGS [r8_243_TrROS] | 0.0841 ± 0.064 | -0.169 ± 0.13
SAGGPEAKIEIYKLPDGYYFISVETPDNGKPMSIPIPPGEEKKIKIEPGAPIRDISIYPVKPGDPEAFSAGG [r13_122_TrROS] | 0.202 ± 0.33 | -0.158 ± 0.3
SAGGPIVTSEVVETRPLPDGSTLVTVKTTKLLPLPVETTAPDGTVSPVPPGTPPVTVTETHLVVLEPSAGGS [r16_693_JUSTAS] | 0.684 ± 0.055 | 0.0694 ± 0.22
SAGGPNMRTVTIEIPPENLKKDPDGEPYSAQDIAKHIAKHLPPDNVEIEIDKIDPDNGWFKVTIIVPSAGGS [r16_284_TrROS] | -0.0083 ± 0.2 | -0.514 ± 0.44
SAGGPNPKTVEIPSPGTPEDVRARVEELAAELRPRGRPVTVTVTVGSTPRTLALAEVASVPPDATATVGSAG [r5_626_JUSTAS] | -0.933 ± 0.4 | < -1
SAGGPPDKSVTVTVTDEKGNPITYPVTASKPVPVYLDDPEKKLEFTVPPDSDFTAPVPPGRVSVDLRSAGGS [r16_456_JUSTAS] | 0.637 ± 0.046 | 0.202 ± 0.12
SAGGRIKIDIDPHPNEPGQPVMIKIKHPNGEREIPIPPNQSPEELKEAADDLAEENGFPIDDVEIHPSAGGS [r16_753_TrROS] | 0.661 ± 0.059 | 0.154 ± 0.16
SAGGRVKVEIYNPDSGRPMEIEINPGNGTLEIRNPNNGEPVHEFPIPDIKEIEIPFSPNGILIKIEVDSAGG [r13_720_TrROS] | 0.281 ± 0.043 | -0.137 ± 0.33
SAGGSAAPPFKVEIETEALPGPVVTRTIKVEPGSTVTIYDPGRDEALTFPVAPGTELVFTFDGTDASAGGSA [r15_224_TrMRF] | 0.849 ± 0.044 | 0.342 ± 0.1
SAGGSAARVVEEIPGVGLLIAKPPTSDEPEIVLSLAELEEARRRSGVPPELAALIAANPDLTLELVSAGGSA [r15_359_JUSTAS] | -0.297 ± 0.43 | < -1
SAGGSADFQVEVERDPNNGYYEIEVRYPNGMPVEIEYNPKKNKIEVKVTPGFPPSMAENAAEELLDSAGGSA [r15_511_TrROS] | 0.136 ± 0.058 | -0.535 ± 0.49

Sequence | folding stability dG unfold [1] [kcal/mol] | folding stability dG unfold [2] [kcal/mol]
SAGGSAEKKINSPEEIKRFAKELEKKGIKILSIDAVKFPSGPVVEYKMPVLHPENGKLSTLYIKSGSAGGSA [r15_123_TrMRF] | -0.352 ± 0.51 | < -1
SAGGSAEKPPIKIEIDTETDPGNGMYEVSIPIRQKNGKPKGTIDIPFNTPQQAEDWLEDLGFDKIESAGGSA [r15_127_TrROS] | -0.865 ± 0.61 | < -1
SAGGSAENLVRTTRTTEALPDGGTRTTTTTTLPGGLTVVTRPYYDPATGTTATTTTTLAPDETVTDSAGGSA [r15_917_JUSTAS] | 0.447 ± 0.05 | -0.0377 ± 0.16
SAGGSAEPTGPPDVEVKRSTSVEGGLTLTPVTYTSPDNTETLVITYTTDPAGNLSSTTATVPPDLVSAGGSA [r15_986_JUSTAS] | 0.276 ± 0.36 | -0.00361 ± 0.28
SAGGSAGEAEELAEAREAALRAALPPGTVVEVEVEVRVEREGDREEERVEVRVTVREPGTDRLLLESAGGSA [r15_915_JUSTAS] | 0.13 ± 0.18 | -0.173 ± 0.57
SAGGSAGGDHVQIEFPIWRMKEVERNPDNGEPRMDMEPIEITIWYPPDDPEKAKKIADEILDFISAGGSAGG [r6_280_TrROS] | 0.891 ± 0.14 | 0.409 ± 0.18
SAGGSAGGLTITLPNGATVTINEDDLEVVEVTFEPAPPAPPVRTETRTVTETRTVTTLAPGEEASAGGSAGG [r6_585_TrROS_Hall] | 0.938 ± 0.035 | 0.403 ± 0.11
SAGGSAGGMKKYTFDSGYEFEIDGATEEEAIEKLKEEGYPLPVKKITAEEVKPEPPPPFERNLKSAGGSAGG [r6_688_JUSTAS] | 0.109 ± 0.23 | -0.451 ± 0.29
SAGGSAGGMTVTVEIPLPPDVPIEEVKEKVKESGYPPTKIEYDPATGKATITLSPEAKEFLEKKSAGGSAGG [r6_307_JUSTAS] | -0.425 ± 0.11 | < -1
SAGGSAGGNNPPKTREIWIPPDDPDDLKDLKIDGPPGDTHHFRNPGGPYRITVTDGDPKVEPWGSAGGSAGG [r6_551_TrROS] | -0.301 ± 0.49 | < -1
SAGGSAGGPMKPVEYEIPLPGRPITIEVNPPYGYIDIEWPPNGKERTVPMSPGQSAEDILKELFSAGGSAGG [r6_166_TrROS] | -1.41 ± 0.32 | < -1
SAGGSAGGSAAVVVNATPDDGFTIYDPATGERLADAEVTKTNGDSLNLPHPDGRAVAVDPRKSAGGSAGGSA [r18_363_JUSTAS] | 0.231 ± 0.084 | -0.373 ± 0.47
SAGGSAGGSADEFVVVADLPEGGEARLLVLPLPDGSYLVAEAEAERHGDRTVLHVKVTPAESAGGSAGGSAG [r3_281_TrMRF] | 0.595 ± 0.11 | -0.0917 ± 0.14
SAGGSAGGSADPAFEALARAEGVPVEVTREGDTLVVTARRPDPAGREVVEEFRVPVPPELLESAGGSAGGSA [r18_27_JUSTAS] | -0.174 ± 0.14 | < -1
SAGGSAGGSAGAEPLVREFEGRRIVLYREEDPGTARIEVFVGDKPYTVPLEYVPEELLLDSAGGSAGGSAGG [r11_152_TrMRF] | 0.78 ± 0.085 | 0.325 ± 0.053
SAGGSAGGSAGAVTVTLTGGPTLEIPIPDVPPEELGTPEVVARIEAIAAARGLTIASIRLSAGGSAGGSAGG [r11_467_JUSTAS] | -0.14 ± 0.14 | < -1
SAGGSAGGSAGDGDTMPFIMIHPDYLTINTWKFNPDGGLEIKSVKTIPLPPPKPSPDNKKSAGGSAGGSAGG [r11_843_TrROS] | -0.466 ± 0.45 | -0.48 ± 0.21
SAGGSAGGSAGDNGPLVIEVDISPDALADAVKNNKPLNANVRIYRPDGSPGGVFDLLIPASAGGSAGGSAGG [r11_26_TrMRF] | 0.217 ± 0.076 | -0.126 ± 0.12
